Experimental data from paper PMC4932527.

Target: human LEPTIN receptor expressed in 293FT cells (human) (UniProt P48357)
UniProt P48357, sequence (P48357 22-1165): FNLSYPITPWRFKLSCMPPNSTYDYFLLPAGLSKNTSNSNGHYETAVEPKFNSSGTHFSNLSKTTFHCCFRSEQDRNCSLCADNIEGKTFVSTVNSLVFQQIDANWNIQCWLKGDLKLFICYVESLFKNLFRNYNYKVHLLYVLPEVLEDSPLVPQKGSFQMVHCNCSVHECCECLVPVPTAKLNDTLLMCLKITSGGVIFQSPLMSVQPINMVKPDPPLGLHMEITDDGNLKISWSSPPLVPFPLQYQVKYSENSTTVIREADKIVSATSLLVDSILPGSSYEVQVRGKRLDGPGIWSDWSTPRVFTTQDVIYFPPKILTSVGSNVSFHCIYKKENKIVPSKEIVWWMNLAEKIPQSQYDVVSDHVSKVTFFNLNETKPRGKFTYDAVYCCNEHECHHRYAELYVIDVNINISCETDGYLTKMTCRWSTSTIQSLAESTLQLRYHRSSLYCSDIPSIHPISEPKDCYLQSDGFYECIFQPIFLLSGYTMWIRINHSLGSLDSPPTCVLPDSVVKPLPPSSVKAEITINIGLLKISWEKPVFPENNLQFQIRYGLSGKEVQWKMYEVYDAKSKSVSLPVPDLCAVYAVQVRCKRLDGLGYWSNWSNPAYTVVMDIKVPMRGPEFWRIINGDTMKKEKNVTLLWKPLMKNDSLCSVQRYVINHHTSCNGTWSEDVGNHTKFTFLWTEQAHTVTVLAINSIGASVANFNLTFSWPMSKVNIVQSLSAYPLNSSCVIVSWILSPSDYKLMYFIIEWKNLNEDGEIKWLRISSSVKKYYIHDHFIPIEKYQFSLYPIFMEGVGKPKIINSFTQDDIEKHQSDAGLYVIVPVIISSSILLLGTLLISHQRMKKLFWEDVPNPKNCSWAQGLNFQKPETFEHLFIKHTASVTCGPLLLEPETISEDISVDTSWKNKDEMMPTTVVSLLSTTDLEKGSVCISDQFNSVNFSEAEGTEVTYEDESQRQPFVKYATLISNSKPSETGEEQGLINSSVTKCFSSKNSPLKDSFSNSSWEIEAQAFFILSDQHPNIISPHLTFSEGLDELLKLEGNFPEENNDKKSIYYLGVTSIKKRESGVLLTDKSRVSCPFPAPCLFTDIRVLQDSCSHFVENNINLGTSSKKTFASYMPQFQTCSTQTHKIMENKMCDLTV

recombinant rat LEPTIN, wild type (from UniProt P50596 22-167) (ligand)
STAT3 luciferase reporter (pGL6-Stat3, normalised to renilla) in 293FT cells transfected with LEPR, treated with different concentrations of recombinant LEP; EC50 of activation: 3e-09 M
